Measured values as given in the supplement of paper PMC10126150.
± gives the standard deviation of the averaged measurements.

Test system: ATP
Test: switch fluorescence ratio, 500 uM ATP over buffer (Cy3 cluster intensity, sum of 5 cycles each) (fold (ratio)); higher = stronger signal-on switching upon ATP binding; sequences stand for … in TCGTCGGCAGCGTCAGATGTGTATAAGAGACAGTTTTTTTTTTTTTTTTTTTTTTTTT…TC
Details: aptamer strand: ATP DNA aptamer (quencher-CACCTGGGGGAGTATTGCGGAGGAAGG + anchor), 100 nM annealed; ATP concentration: 500 uM
Procedure, shortened: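 The quencher-labelled ATP aptamer, at 100 nM, was annealed to Cy3-labelled switching-strand clusters on a modified Illumina MiSeq flow-cell. The clusters were imaged in selection buffer, then after 15 min with 500 uM ATP at 22 °C, and this buffer/ATP cycle ran five times with NaOH stripping and re-annealing between runs. Per-cluster fluorescence ratios, summed target-cycle over summed buffer-cycle Cy3 intensity, were averaged per switch-domain sequence. Clusters outside 100-1000 RFU were excluded.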
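Note: ATP exposure 15 min at 22 °C before imaging.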

Sequence	switch fluorescence ratio
CGGGGAAACA	0.9943 ± 0.0077
CGGGGAAGGG	1.005 ± 0.0032
CGGGGAAGTC	1.02 ± 0.044
CGGGGACGGG	1.02 ± 0.013
CGGGGACTTG	0.987 ± 0.029
CGGGGAGAC	1.02 ± 0.062
CGGGGAGACG	0.929 ± 0.13
CGGGGAGCCA	1.001 ± 0.01
CGGGGAGGAG	1.02 ± 0.056
CGGGGATACG	1.01 ± 0.048
CGGGGATGTT	0.999 ± 0.035
CGGGGATTCC	1.06 ± 0.031
CGGGGATTCG	0.996 ± 0.026
CGGGGCAGGT	1.01 ± 0.021
CGGGGCCGGG	0.996 ± 0.017
CGGGGCGGTC	0.96 ± 0.047
CGGGGCGGTT	1 ± 0.032
CGGGGGAGAA	1 ± 0.034
CGGGGGAGCG	1 ± 0.045
CGGGGGAGGG	1.16 ± 0.45
CGGGGGATTG	0.988 ± 0.014
CGGGGGCATG	1.013 ± 0.0094
CGGGGGCGAA	0.996 ± 0.05
CGGGGGGAAA	1 ± 0.02
CGGGGGGACA	0.968 ± 0.041

Sequence	switch fluorescence ratio
CGGGGGGCTG	0.995 ± 0.04
CGGGGGGGA	1.0242 ± 0.00033
CGGGGGGGCG	1.03 ± 0.074
CGGGGGGGCT	0.997 ± 0.026
CGGGGGGGTA	1 ± 0.027
CGGGGGGTAA	1.01 ± 0.029
CGGGGGTAG	0.9982 ± 0.0021
CGGGGGTGCA	1 ± 0.0011
CGGGGGTGG	1.02 ± 0.062
CGGGGGTTCT	1.006 ± 0.0032
CGGGGGTTGA	1.03 ± 0.03
CGGGGTAATC	1.03 ± 0.047
CGGGGTAGCT	0.989 ± 0.035
CGGGGTCGGA	0.999 ± 0.035
CGGGGTCTGA	0.953 ± 0.028
CGGGGTGCTG	1.03 ± 0.03
CGGGGTTCCG	0.9532 ± 0.0064
CGGGGTTCGG	0.996 ± 0.023
CGGGGTTGGC	1.02 ± 0.061
CGGGGTTTT	0.999 ± 0.046
CGGGTAACGG	1.035 ± 0.0014
CGGGTAATGG	1.03 ± 0.07
CGGGTAATGT	0.978 ± 0.029
CGGGTAATTT	1.03 ± 0.019
CGGGTACATG	1.03 ± 0.048

Sequence	switch fluorescence ratio
CGGGTAGTAC	1.19 ± 0.03
CGGGTATAGC	0.996 ± 0.05
CGGGTATGCT	0.959 ± 0.025
CGGGTATGGA	1.02 ± 0.033
CGGGTATGTA	1 ± 0.0022
CGGGTCCATT	0.981 ± 0.0079
CGGGTCTGTG	0.999 ± 0.018
CGGGTGAATT	1.01 ± 0.071
CGGGTGACGA	1.03 ± 0.04
CGGGTGAGCA	0.996 ± 0.026
CGGGTGAGGT	1 ± 0.027
CGGGTGGGTC	1.29 ± 0.51
CGGGTGGTCG	0.8742 ± 0.0063
CGGGTGTTTT	1.055 ± 0.0089
CGGGTTACGA	1.02 ± 0.028
CGGGTTATGT	0.992 ± 0.044
CGGGTTCAT	1.01 ± 0.028
CGGGTTCGCC	0.981 ± 0.012
CGGGTTGCAT	1.023 ± 0.0087
CGGGTTGGGG	1 ± 0.016
CGGGTTGGTC	1.05 ± 0.041
CGGGTTTGGG	0.983 ± 0.016
CGGTAAATGT	1.05 ± 0.071
CGGTAACTGG	1.01 ± 0.048
CGGTACGAAT	1.034 ± 0.0096

Sequence	switch fluorescence ratio
CGGTAGCGCC	0.99 ± 0.06
CGGTAGGGGG	1.02 ± 0.049
CGGTAGTCAG	0.9983 ± 0.008
CGGTAGTTTT	0.99 ± 0.014
CGGTATAAGG	0.982 ± 0.046
CGGTATGATC	1.02 ± 0.022
CGGTATGGGG	1 ± 0.029
CGGTATGTG	1.01 ± 0.036
CGGTATTGTG	0.968 ± 0.028
CGGTCCGGCG	1.012 ± 0.0011
CGGTCCTTGG	0.99 ± 0.014
CGGTCGATCC	1 ± 0.023
CGGTCTAGGG	0.995 ± 0.019
CGGTCTGGGG	0.981 ± 0.027
CGGTCTTACT	1.02 ± 0.02
CGGTGAATAC	2.67 ± 0.064
CGGTGACGTT	1.01 ± 0.028
CGGTGAGGAC	0.98264 ± 0.00074
CGGTGATTGA	1.004 ± 0.0023
CGGTGCGACG	0.958 ± 0.041
CGGTGCTATG	1 ± 0.015
CGGTGGCTGG	0.972 ± 0.036
CGGTGGCTTC	1.003 ± 0.0026
CGGTGGGTGC	0.997 ± 0.038
CGGTGGTGAT	1.009 ± 0.0059

Sequence	switch fluorescence ratio
CGGTGGTTGG	1 ± 0.029
CGGTGTAGAG	0.996 ± 0.0093
CGGTGTCTCA	1.0117 ± 0.00057
CGGTGTGGGG	1.01 ± 0.032
CGGTTAGACG	0.977 ± 0.008
CGGTTAGGAT	0.994 ± 0.0078
CGGTTATGTA	0.989 ± 0.034
CGGTTATTAG	0.9897 ± 0.0066
CGGTTCGGGT	0.993 ± 0.013
CGGTTGATCG	0.918 ± 0.036
CGGTTGCTTA	0.987 ± 0.012
CGGTTGGGAG	1.019 ± 0.0064
CGGTTGGTAT	0.969 ± 0.051
CGGTTGTAAA	1.02 ± 0.013
CGGTTGTAAT	1.03 ± 0.041
CGGTTGTTTG	0.974 ± 0.015
CGGTTTAGGG	0.986 ± 0.026
CGGTTTATAT	0.99 ± 0.013
CGGTTTCAAG	0.972 ± 0.042
CGGTTTCCTC	1.11 ± 0.074
CGGTTTGGCT	1.08 ± 0.12
CGGTTTTAAT	0.99589 ± 0.00077
CGGTTTTAGG	1.0066 ± 0.00065
CGGTTTTTAC	1.08 ± 0.041
CGGTTTTTTA	0.964 ± 0.025

Sequence	switch fluorescence ratio
CGTAAACTTG	1.02 ± 0.023
CGTAAATATA	1.03 ± 0.015
CGTAAGAGCT	1 ± 0.016
CGTAATCATC	1.13 ± 0.023
CGTAATTTCA	1.02 ± 0.013
CGTACACGTT	1.02 ± 0.051
CGTACATTTA	1.03 ± 0.051
CGTACCAACC	1.2 ± 0.029
CGTACCTGCG	1.06 ± 0.042
CGTACGGACC	1.26 ± 0.046
CGTACGGGTT	0.9959 ± 0.0039
CGTACTAAAA	1.06 ± 0.036
CGTAGAATGC	1.44 ± 0.082
CGTAGAGCGG	1 ± 0.074
CGTAGGATTG	1.02 ± 0.03
CGTAGGGCAG	0.991 ± 0.049
CGTAGGGGGG	0.986 ± 0.03
CGTAGGGGTG	0.969 ± 0.014
CGTAGGGTTG	0.974 ± 0.057
CGTAGTAGTG	0.993 ± 0.027
CGTAGTTCGA	1.02 ± 0.018
CGTATAACTC	1.11 ± 0.014
CGTATGCCGA	0.961 ± 0.016
CGTATGGATA	0.998 ± 0.028
CGTATGTTGG	1.04 ± 0.012

Sequence	switch fluorescence ratio
CGTATTCATA	0.977 ± 0.037
CGTATTTAGA	0.99 ± 0.064
CGTATTTCTG	0.938 ± 0.072
CGTATTTTTA	1 ± 0.089
CGTCAAGGTG	1.42 ± 0.24
CGTCAGCACT	1.79 ± 0.04
CGTCATTAAA	0.984 ± 0.023
CGTCATTCGC	1.05 ± 0.16
CGTCATTTAT	1 ± 0.06
CGTCCATATG	1.016 ± 0.0089
CGTCCTGGCT	1.02 ± 0.07
CGTCCTGGGT	0.995 ± 0.011
CGTCGATAAT	1.03 ± 0.035
CGTCGGCGCC	1.09 ± 0.12
CGTCGGTTAG	1.01 ± 0.015
CGTCGTAGTG	0.989 ± 0.016
CGTCTTCCTG	1 ± 0.056
CGTCTTGCCC	0.9853 ± 0.0052
CGTGAAAGCA	1.02 ± 0.067
CGTGAAAGTG	0.991 ± 0.019
CGTGAAATCG	1.02 ± 0.019
CGTGAAATGT	0.9863 ± 0.0075
CGTGAAGATG	0.9674 ± 0.0068
CGTGAAGGTG	1.24 ± 0.074
CGTGACCTTT	1.02 ± 0.048

Sequence	switch fluorescence ratio
CGTGACGGTT	1.03 ± 0.062
CGTGACTCTA	1.03 ± 0.046
CGTGACTGGT	0.9683 ± 0.005
CGTGAGAGCA	1.01 ± 0.035
CGTGAGCTAG	1.03 ± 0.029
CGTGAGCTTG	1.0004 ± 4.9e-05
CGTGATGTTT	1 ± 0.047
CGTGATTATA	0.992 ± 0.0072
CGTGATTCGC	1.018 ± 0.0023
CGTGCAAAGG	1.05 ± 0.013
CGTGCCATAG	1 ± 0.015
CGTGCCCTGC	1.06 ± 0.028
CGTGCGCATA	3.77 ± 1.4
CGTGCGTCGG	1.01 ± 0.017
CGTGCGTGCT	1.01 ± 0.023
CGTGCTGGCA	1.019 ± 0.0064
CGTGCTGGTT	1.01 ± 0.061
CGTGCTGTA	1.046 ± 0.0054
CGTGGAGCGA	1.04 ± 0.02
CGTGGAGGGA	1.01 ± 0.027
CGTGGATACT	1.23 ± 0.057
CGTGGATAGC	1.02 ± 0.055
CGTGGATGAC	0.9939 ± 0.0096
CGTGGATTCC	1.03 ± 0.011
CGTGGATTTA	0.983 ± 0.011
